Assay results published in patent publication US20020076693A1 (published 2002).

Molecular target: T1, recombinant soluble CD4 (UniProt P01730 26-396)
T1 construct: domain: soluble form of recombinant CD4
Assay: BIAcore, soluble CD4; row shifted one column to the left

B1: recombinant gp120 of HIV-1 SF2 (ligand)
chain: not shown
notes: domain: gp120; also called gp120 HIV-1 SF2; gp120-SF2
Ka: 2.1e+08 M⁻¹
koff: 0.0056 s⁻¹
kon: 1.15e+06 M⁻¹ s⁻¹
